Assay results taken from patent US20160237160A1, “ANTI-TWEAKR ANTIBODIES AND USES THEREOF” (BAYER PHARMA AKTIENGESELLSCHAFT, priority 2013, published 2016).
Residue numbers refer to the chain shown, from its start. Blank lines part the entries; values can stand above or below the molecule they belong to.

Legend:
TWEAKR = TWEAKR (Homo sapiens, UniProt Q9NP84); settings: published data; read-out: KD / binding affinity to TWEAKR (published); cited from earlier work
[1] = molecular target: T1, TWEAKR protein (TPP-2305) (Homo sapiens, UniProt Q9NP84); assay: Biacore monovalent KD with TWEAKR protein; format: binding; settings: for ka / kd: first order 1:1 binding model
T1 construct: TPP-2305; hTNFRSF12Aaa28-80; Human; 30R-AT080; 168; purchased Fitzgerald Inc 30R-AT080
Protocol: Binding affinities of anti-TWEAKR antibodies were determined by surface plasmon resonance analysis on a Biacore T100 instrument (GE Healthcare Biacore, Inc.). Antibodies were immobilized onto a CM5 sensor chip through an indirect capturing reagent, anti-human IgG(Fc). Reagents from the “Human Antibody Capture Kit” (BR-1008-39, GE Healthcare Biacore, Inc.) were used as described by the manufacturer. Anti-TWEAKR antibodies were injected at a concentration of 10 μg/ml at 10 μl/min for 10 sec.
Sensorgrams were generated after in-line reference cell correction followed by buffer sample subtraction. The dissociation equilibrium constant (KD) was calculated based on the ratio of association (kon) and dissociation rated (koff) constants, obtained by fitting sensorgrams with a first order 1:1 binding model.

TWEAKR-Fc WT (TPP-599) = molecular target: T2, TWEAKR-Fc WT (TPP-599) (Homo sapiens, UniProt Q9NP84); assay: ELISA mutein binding; settings: coating 62 ng/ml; biotinylated IgG from 100 nM; read-out: IC50 of antibody binding, WT
T2 construct: TPP-599; HUMAN-TNFRSF12Aaa28-80-hIgG1-Fc; 138; made in house
Protocol: (§1) Therefore, the full ectodomain (amino acids 28-80) with the following single amino acid substitutions were expressed and purified as Fc fusion proteins: T33Q; S40R; W42A; M50A; R56P; H60K; L65Q.
(§2) To collect dose-response data, the different TWEAKR-Fc muteins were coated with a low concentration (62 ng/ml) in a 384-well Maxisorb ELISA plate and a serial 2fold dilution of biotinylated IgG starting with a concentration of 100 nM was used as soluble binding partner. Detection was done with Streptavidin-HRP and Amplex Red.
(§3) IgGs were biotinylated using an approximately 2-fold molar excess of biotin-LC-NHS (Pierce; Cat. No. 21347) according to manufacturer's instructions and desalted using Zeba desalting columns (Pierce; Cat. No. 89889). The dose-response data were fitted and IC50s determined.

[2] = molecular target: T3, TWEAKR-Fc mutein S40R (TPP-1987) (Homo sapiens, UniProt Q9NP84, S40R); assay: ELISA mutein binding; settings: coating 62 ng/ml; biotinylated IgG from 100 nM; read-out: IC50 of antibody binding, S40R
T3 construct: the full ectodomain (amino acids 28-80) with the following single amino acid substitutions; made in house
Protocol: as §1, §2, §3

[3] = molecular target: T4, TWEAKR-Fc mutein M50A (TPP-1988) (Homo sapiens, UniProt Q9NP84, M50A); assay: ELISA mutein binding; settings: coating 62 ng/ml; biotinylated IgG from 100 nM; read-out: IC50 of antibody binding, M50A
T4 construct: the full ectodomain (amino acids 28-80) with the following single amino acid substitutions; made in house
Protocol: as §1, §2, §3

[4] = molecular target: T5, TWEAKR-Fc mutein T33Q (TPP-1986) (Homo sapiens, UniProt Q9NP84, T33Q); assay: ELISA mutein binding; settings: coating 62 ng/ml; biotinylated IgG from 100 nM; read-out: IC50 of antibody binding, T33Q
T5 construct: the full ectodomain (amino acids 28-80) with the following single amino acid substitutions; made in house
Protocol: as §1, §2, §3

[5] = molecular target: T6, TWEAKR-Fc mutein R56P (TPP-2683) (Homo sapiens, UniProt Q9NP84, R56P); assay: ELISA mutein binding; settings: coating 62 ng/ml; biotinylated IgG from 100 nM; read-out: IC50 of antibody binding, R56P
T6 construct: the full ectodomain (amino acids 28-80) with the following single amino acid substitutions; made in house
Protocol: as §1, §2, §3

[6] = molecular target: T7, TWEAKR-Fc mutein L65Q (TPP-1990) (Homo sapiens, UniProt Q9NP84, L65Q); assay: ELISA mutein binding; settings: coating 62 ng/ml; biotinylated IgG from 100 nM; read-out: IC50 of antibody binding, L65Q
T7 construct: the full ectodomain (amino acids 28-80) with the following single amino acid substitutions; made in house
Protocol: as §1, §2, §3

[7] = molecular target: T8, TWEAKR-Fc mutein W42A (TPP-1985) (Homo sapiens, UniProt Q9NP84, W42A); assay: ELISA mutein binding; settings: coating 62 ng/ml; biotinylated IgG from 100 nM; read-out: IC50 of antibody binding, W42A
T8 construct: the full ectodomain (amino acids 28-80) with the following single amino acid substitutions; made in house
Protocol: as §1, §2, §3

[8] = molecular target: T9, TWEAKR-Fc mutein H60K (TPP-1989) (Homo sapiens, UniProt Q9NP84, H60K); assay: ELISA mutein binding; settings: coating 62 ng/ml; biotinylated IgG from 100 nM; read-out: IC50 of antibody binding, H60K
T9 construct: the full ectodomain (amino acids 28-80) with the following single amino acid substitutions; made in house
Protocol: as §1, §2, §3

ka [1]: 1.64e+07 M⁻¹ s⁻¹
kd [1]: 0.0285 s⁻¹
IC50 (TWEAKR-Fc WT (TPP-599)): 0.001 to 0.15 nM
IC50 [2]: 0.001 to 0.15 nM
IC50 [3]: 0.001 to 0.15 nM
IC50 [4]: 0.001 to 0.15 nM
IC50 [5]: > 50 nM
IC50 [6]: 0.001 to 0.15 nM
IC50 [7]: > 50 nM
IC50 [8]: 0.001 to 0.15 nM
B1: 18.3.3(TPP-2193): reference anti-TWEAKR antibody, murine IgG2a, from WO2009/020933; SEQ ID NO 129/130 (protein)
light: DIVLTQSPASLAVSLGQRATISCKASQSVSTSTYSYMQWYQQRPGQSPKLLIKYASKLDSGVPARFSGSGSGTDFTLNIHPVEEEDTATYYCQHSWELPYTFGGGTRLEIKRADAAPTVSIFPPSSEQLTSGGASVVCFLNNFYPKDINVKWKIDGSERQNGVLNSWTDQDSKDSTYSMSSTLTLTKDEYERHNSYTCEATHKTSTSPIVKSFNRNEC
heavy: EVKLGESGGGLVQPGGSMKLSCVASGFPFTKYWMNWVRQSPEKGLEWVAEIRLKSDNYATHYAESAKGRFTISRDDSRSSVYLQMNNLRAEDTAIYYCSPTYADTMDYWGQGTSVTVSSAKTTAPSVYPLAPVCGDTTGSSVTLGCLVKGYFPEPVTLTWNSGSLSSGVHTFPAVLQSDLYTLSSSVTVTSSTWPSQSITCNVAHPASSTKVDKKIEPRGPTIKPCPPCKCPAPNLLGGPSVFIFPPKIKDVLMISLSPIVTCVVVDVSEDDPDVQISWFVNNVEVHTAQTQTHREDYNSTLRVVSALPIQHQDWMSGKEFKCKVNNKDLPAPIERTISKPKGSVRAPQVYVLPPPEEEMTKKQVTLTCMVTDFMPEDIYVEWTNNGKTELNYKNTEPVLDSDGSYFMYSKLRVEKKNWVERNSYSCSVVHEGLHNHHTTKSFSRTPG
modifications: Mus Musculus
Kd (TWEAKR): 0.2 nM

ka [1]: 3.84e+07 M⁻¹ s⁻¹
kd [1]: 0.0324 s⁻¹
IC50 (TWEAKR-Fc WT (TPP-599)): 0.001 to 0.15 nM
IC50 [2]: 0.001 to 0.15 nM
IC50 [3]: 0.001 to 0.15 nM
IC50 [4]: 0.001 to 0.15 nM
IC50 [5]: > 50 nM
IC50 [6]: 0.001 to 0.15 nM
IC50 [7]: > 50 nM
IC50 [8]: 0.001 to 0.15 nM
B2: 136.1(TPP-2194): reference anti-TWEAKR antibody, murine IgG2a, from WO2009/020933; SEQ ID NO 123/124 (protein)
light: B1 light with A12T, K24R, T33S, S47P, S56T, K57N, T87A, L98I, R107K
heavy: EVKLEESGGGLVQPGGSMKLSCVASGFTFNNYWMSWVRQSPEKGLEWLAEIRLKSDNYATHYAESVKGKFTISRDDSKSRLYLQMNNLRAENTGIYYCTGGFADYFDYWGQGTTLTVSSAKTTAPSVYPLAPVCGDTTGSSVTLGCLVKGYFPEPVTLTWNSGSLSSGVHTFPAVLQSDLYTLSSSVTVTSSTWPSQSITCNVAHPASSTKVDKKIEPRGPTIKPCPPCKCPAPNLLGGPSVFIFPPKIKDVLMISLSPIVTCVVVDVSEDDPDVQISWFVNNVEVHTAQTQTHREDYNSTLRVVSALPIQHQDWMSGKEFKCKVNNKDLPAPIERTISKPKGSVRAPQVYVLPPPEEEMTKKQVTLTCMVTDFMPEDIYVEWTNNGKTELNYKNTEPVLDSDGSYFMYSKLRVEKKNWVERNSYSCSVVHEGLHNHHTTKSFSRTPG
modifications: Mus Musculus
Kd (TWEAKR): 0.7 nM

ka [1]: 1.32e+06 M⁻¹ s⁻¹
kd [1]: 0.000564 s⁻¹
Kd ([1]; monovalent KD): 0.4 nM
B3: P2D3(TPP-2196): reference anti-TWEAKR antibody, murine IgG2a, from WO2009/140177; SEQ ID NO 131/132 (protein)
light: DIVLTQSPASLAVSLGQRATISCRASKSVSTSSYSYMHWYQQKPGQPPKLLIKYTSNLESGVPARFSGSGSGTDFILNIHPVEEEDAATYYCQHSRELPWTFGGGTKLEIKRADAAPTVSIFPPSSEQLTSGGASVVCFLNNFYPKDINVKWKIDGSERQNGVLNSWTDQDSKDSTYSMSSTLTLTKDEYERHNSYTCEATHKTSTSPIVKSFNRNEC
heavy: QVSLKESGPGILQPSQTLSLTCSFSGFSLSTSGMGVSWIRQPSGKGLEWLAHIYWDDDKRYNPSLKSRLTISKDTSRNQVFLKITSVDTADTATYYCARRGPDYYGYYPMDYWGQGTSVTVSAKTTAPSVYPLAPVCGDTTGSSVTLGCLVKGYFPEPVTLTWNSGSLSSGVHTFPAVLQSDLYTLSSSVTVTSSTWPSQSITCNVAHPASSTKVDKKIEPRGPTIKPCPPCKCPAPNLLGGPSVFIFPPKIKDVLMISLSPIVTCVVVDVSEDDPDVQISWFVNNVEVHTAQTQTHREDYNSTLRVVSALPIQHQDWMSGKEFKCKVNNKDLPAPIERTISKPKGSVRAPQVYVLPPPEEEMTKKQVTLTCMVTDFMPEDIYVEWTNNGKTELNYKNTEPVLDSDGSYFMYSKLRVEKKNWVERNSYSCSVVHEGLHNHHTTKSFSRTPG
modifications: Mus Musculus
